How the values were obtained:
[1] = molecular target: Mb(BgaD_L14), purified monobody; test: bead-based binding assay read by flow cytometry
[2] = molecular target: Mb(BgaD_L19) displayed on yeast; test: flow cytometry on cells
[3] = molecular target: Mb(BgaD_L23) displayed on yeast; test: flow cytometry on cells

Kd [1]: 31 nM | Kd [2]: 600 nM | Kd [3]: 12 nM
B1: BgaD-D, β-galactosidase from Bacillus circulans ATCC 31382 (residues 36–847), biotinylated (enzyme)
chain: GNSVSYDGERRVNFNENWRFQRETNGSIAGAQNPGFDDSSWRKLNLPHDWSIELDFNKNSLATHEGGYLDGGIGWYRKTFTIPESMKGKRISLDFDGVYMNSTTYLNGEVLGTYPFGYNAFSYDISDKLYKDGRANVLVVKVNNTQPSSRWYSGSGIYRNVYLTVTDPIHVARYGTFVTTPNLEKSIKEDRADVNIKTKISNDAAEAKQVKIKSTIYDGAGNTVQTVETEEKTAAAGTVTPFEQNTVIKQPKLWSIDKPYRYNLVTEVIVGGQTVDTYETKFGVRYFKFDENEGFSLNGEYMKLHGVSMHHDLGALGAATNARGVERQMQIMKDMGVNAIRVTHNPASPELLEAANKLGLFIIEEAFDSWAQSKKPYDYGRFFNAWAEHDIKEMVDRGKNEPAIIMWSIGNEIYDTTNAAGVETARNLVGWVKEIDTTRPTTIGEDKTRGDKVNVTPINSYIKEIFNIVDVVGLNYSENNYDGYHKQNPSWKLYGSETSSATRSRGVYTHPYQYNQSTKYADLQQSSYDNDYVGWGRTAEDAWKYDRDLKHIAGQFIWTGFDYIGEPTPYYNSYPAKSSYFGAVDTAGFPKDIFYYYQSQWKKEPMVHLLPHWNWKEGEKVRVLAYTNASKVELVLNGESLGEKNYDNKQTSWGAPYKETKDGKTYLEWAVPFKPGKLEAVAKDENGKVIARDQVVTAGEPASVRLTADRKVVKADGTDLSFITADIVDSKGIVVPDADHLITFNVTGQGELAGVDNGNASSVERYKDNKRKAFSGKALAIVQSSKLSGKITVHASVAGLSSDSTSVFTVTP
modifications: biotin on the biotin-acceptor tag (in vivo biotinylation)

Source: publication PMC4989918
